Measurements taken from PMC6149798.

Legend:
[1] = target: 9His-rsLAAO1 (L-amino acid oxidase from Rhizoctonia solani with nine histidine residues as affinity tag) (Rhizoctonia solani); assay: SEC; native 9His-rsLAAO1 on calibrated Superdex 200 Increase 10/300 GL, 50 mM NaH2PO4 pH 8.2, 300 mM NaCl, 0.3 mL/min; without SDS
[2] = target: 9His-rsLAAO1 (L-amino acid oxidase from Rhizoctonia solani with nine histidine residues as affinity tag) (Rhizoctonia solani); assay: SEC; 9His-rsLAAO1 activated with 1.5 mM SDS, added to the protein solution before chromatography; Superdex 200 Increase 10/300 GL, 50 mM NaH2PO4 pH 8.2, 300 mM NaCl

For “9His-rsLAAO1 (L-amino acid oxidase from Rhizoctonia solani with nine histidine residues as affinity tag) (enzyme)”, the stoichiometry N [1] was 2 and the stoichiometry N [2] was 2.
